Laboratory results: publication PMC2133023

Molecular target: GAL4 DNA-binding domain fusion of the neuroglian^167 cytoplasmic domain with Y1234F (Drosophila)
Test: two-hybrid

A reduction of binding against wild type (β-galactosidase) of 50% was found for “GAL4 activation domain–Drosophila ankyrin fusion protein (from UniProt Q24241 1-1549) (natural protein)” in this work.
